Laboratory results published in the Human Domainome abundance scans (Beltran et al. 2025).
± gives the uncertainty stated by the source.

B1: Intersectin-1, residues 909 to 971; numbered along this chain, Q15811 (parent)
chain: QGEKVEGLQAQALYPWRAKKDNHLNFNKNDVITVLEQQDMWWFGEVQGQKGWFPKSYVKLISG

Variants of: B1
Assay: abundance fitness (aPCA) (normalised: wild type 0, dead -1); higher = more abundant; growth selection in yeast, the domain comes from the species named
Conditions: Homo sapiens

Point of comparison: QGEKVEGLQAQALYPWRAKKDNHLNFNKNDVITVLEQQDMWWFGEVQGQKGWFPKSYVCLISG [K59C], abundance fitness -0.192 ± 0.2. Against it:
- QGEKVEGLQAQALYPWRAKKDNHLNFNKNDVITVLEQQDMWWFGEAQGQKGWFPKSYVKLISG [V46A] — within error, 0.015 ± 0.078
- QGEKVEGLQAQALYPWRAKKDNHLNFNKNDVITVLEQQDMWWFGEKQGQKGWFPKSYVKLISG [V46K] — within error, -0.051 ± 0.21
- QGEKVEGLQAQALRPWRAKKDNHLNFNKNDVITVLEQQDMWWFGEVQGQKGWFPKSYVKLISG [Y14R] — within error, -0.052 ± 0.084
- QGEKVEGLQAQALYPWRAKKDNHLNFNKNDVITVLEQQDMWWFGKVQGQKGWFPKSYVKLISG [E45K] — within error, -0.222 ± 0.21
- QGEKVEGLQAQALYPWRAKKDNHLNFNKNDVITVLEQQDMWWFGWVQGQKGWFPKSYVKLISG [E45W] — within error, -0.274 ± 0.15
- QGEKVEGLQAQALYPWRAKKDNHLNFNKNDVITVLEQQDMWWFGEVQGQKGWFPKSYVKKISG [L60K] — within error, -0.1 ± 0.11
- QGEKVEGLQAQALYPWRAKKDNHLNFNKNDVITVLEQQDMWWFGEVQGQKGWFPKSYVKRISG [L60R] — within error, -0.119 ± 0.087
- QGEKVEGRQAQALYPWRAKKDNHLNFNKNDVITVLEQQDMWWFGEVQGQKGWFPKSYVKLISG [L8R] — within error, -0.087 ± 0.072
- QGEKVEGEQAQALYPWRAKKDNHLNFNKNDVITVLEQQDMWWFGEVQGQKGWFPKSYVKLISG [L8E] — within error, -0.003 ± 0.11
- QGEKVEGWQAQALYPWRAKKDNHLNFNKNDVITVLEQQDMWWFGEVQGQKGWFPKSYVKLISG [L8W] — within error, -0.152 ± 0.11
- QGEKVEGYQAQALYPWRAKKDNHLNFNKNDVITVLEQQDMWWFGEVQGQKGWFPKSYVKLISG [L8Y] — within error, 0.112 ± 0.3
- QGEKVEGLQAQALYPCRAKKDNHLNFNKNDVITVLEQQDMWWFGEVQGQKGWFPKSYVKLISG [W16C] — within error, -0.157 ± 0.17
- QGEKVEGLQAQALYPGRAKKDNHLNFNKNDVITVLEQQDMWWFGEVQGQKGWFPKSYVKLISG [W16G] — lower, -0.744 ± 0.12
- QGEKVEGLQAQALYPWRAKKDNHLNFNKNDVITVLEQQDMWWFGEVQGQKGTFPKSYVKLISG [W52T] — lower, -0.89 ± 0.28
- QGEKVEGLQAQALYPWRAKKDNHLNFNKNDVITVLEQQDMWWFGEVQGQKGIFPKSYVKLISG [W52I] — within error, -0.458 ± 0.25
- QGEKVEGLQAQALYPWRAKKDNHLNFNKNDVITVLEQQDMWWFGEVQGQKGWFPKSYVGLISG [K59G] — within error, -0.424 ± 0.11
- QGEKVEGLQAQALYPWRAKKDNHLNFNKNDVITVLEQQDMWWFGEVQGQKGWFPKSYVDLISG [K59D] — within error, -0.615 ± 0.28
- QGEKVEGLQAQALYPWRAKKDNHLNFNKNDFITVLEQQDMWWFGEVQGQKGWFPKSYVKLISG [V31F] — within error, -0.022 ± 0.033
- QGEKVEGLQAQALYPWRAKKDNHLNFNKNDHITVLEQQDMWWFGEVQGQKGWFPKSYVKLISG [V31H] — within error, -0.117 ± 0.038
- QGEKVEGLQAQALYPWRAKKDNHLNFNKNDVITVLEQQDMWWFGEVQGQKGWFPKSVVKLISG [Y57V] — within error, -0.084 ± 0.11
- QGEKVEGLQAQALYPWRAKKDNHLVFNKNDVITVLEQQDMWWFGEVQGQKGWFPKSYVKLISG [N25V] — within error, -0.207 ± 0.076
- QGEKVEGLQAQALYPWRAKKDNHLNINKNDVITVLEQQDMWWFGEVQGQKGWFPKSYVKLISG [F26I] — within error, -0.072 ± 0.22
- QGEKVEGLQAQALYPWRAKKDNHLNQNKNDVITVLEQQDMWWFGEVQGQKGWFPKSYVKLISG [F26Q] — lower, -1 ± 0.21
- QGEKVEGLQAQALYPWRAKKDNHLNMNKNDVITVLEQQDMWWFGEVQGQKGWFPKSYVKLISG [F26M] — within error, 0.014 ± 0.48
- QGEKVEGLQAQALYPWRAKKDNHLNFNKNDVITVLEQQDMWWFGEVKGQKGWFPKSYVKLISG [Q47K] — within error, 0.027 ± 0.15
- QGEKVEGLQAQALYPWRAKKDNHLNFNDNDVITVLEQQDMWWFGEVQGQKGWFPKSYVKLISG [K28D] — within error, -0.145 ± 0.46
- QGEKVEGLQAQALYPWRAKKDNHLNFNKNDVIIVLEQQDMWWFGEVQGQKGWFPKSYVKLISG [T33I] — within error, -0.213 ± 0.17
- QNEKVEGLQAQALYPWRAKKDNHLNFNKNDVITVLEQQDMWWFGEVQGQKGWFPKSYVKLISG [G2N] — within error, -0.175 ± 0.3
- QLEKVEGLQAQALYPWRAKKDNHLNFNKNDVITVLEQQDMWWFGEVQGQKGWFPKSYVKLISG [G2L] — within error, -0.386 ± 0.18
- QGEKVEGLQAQALYPWRAKPDNHLNFNKNDVITVLEQQDMWWFGEVQGQKGWFPKSYVKLISG [K20P] — within error, -0.374 ± 0.063
- QGEKVEGLQAQALYPWRAKADNHLNFNKNDVITVLEQQDMWWFGEVQGQKGWFPKSYVKLISG [K20A] — within error, 0.001 ± 0.049
- QGEKVEGLQAQALYPWRAKIDNHLNFNKNDVITVLEQQDMWWFGEVQGQKGWFPKSYVKLISG [K20I] — within error, -0.092 ± 0.053
- QGEKVEGLQAQALYPWRAKKDNHLNFNKNDVITVLEQQDMWWMGEVQGQKGWFPKSYVKLISG [F43M] — within error, -0.107 ± 0.17
- QGEKVEGLQAQALYPWRAKKDNHLNFNKNDVITVLEQQDMWWEGEVQGQKGWFPKSYVKLISG [F43E] — within error, -0.465 ± 0.12
- QGGKVEGLQAQALYPWRAKKDNHLNFNKNDVITVLEQQDMWWFGEVQGQKGWFPKSYVKLISG [E3G] — within error, -0.165 ± 0.1
- QGIKVEGLQAQALYPWRAKKDNHLNFNKNDVITVLEQQDMWWFGEVQGQKGWFPKSYVKLISG [E3I] — within error, 0.237 ± 0.37
- QGEKVEGLQAQALYPWRAKKDNHLNFNKNDVITVLEQQDMWWFGEVQGQKGWKPKSYVKLISG [F53K] — lower, -0.962 ± 0.41
- QGEKVEGLQAQALYPWRAKKDNHLNFNKNDVITVLEQQDMWWFGEVQGQKGWHPKSYVKLISG [F53H] — within error, -0.709 ± 0.49
- QGERVEGLQAQALYPWRAKKDNHLNFNKNDVITVLEQQDMWWFGEVQGQKGWFPKSYVKLISG [K4R] — within error, -0.126 ± 0.1
- QGEKVEGLQAQALYPWRAKKDNHLNFNKNDVITVGEQQDMWWFGEVQGQKGWFPKSYVKLISG [L35G] — within error, -0.033 ± 0.16
- QGEKVEGLQAQALYPWQAKKDNHLNFNKNDVITVLEQQDMWWFGEVQGQKGWFPKSYVKLISG [R17Q] — within error, -0.066 ± 0.15
- QGEKVEGLQAQALYPWRAKKDNHLNFNKNDVITVLEQQDMWWFGEVQGQKGWFPKSYPKLISG [V58P] — within error, -0.379 ± 0.2
